From patent US20220177567A1 (WASHINGTON UNIVERSITY, published 2022)

Experiments:
[1] = biological target: T1, human IL12Rβ1 (native, on human primary cells) (human, UniProt P42701 24-662); assay: summary statement; no affinity method or value given
T1 construct: whole, on cells; Endogenous receptor on human tonsil ILC3 and peripheral blood lymphocytes; also called CD212; interleukin 12 receptor subunit beta 1

[2] = biological target: T2, human FLAG-tagged IL12Rβ1 expressed on EL-4 cells (human, UniProt P42701 24-662); assay: flow cytometry, hybridoma supernatant followed by anti-mouse IgG PE
T2 construct: whole, on cells; EL-4 cell line transduced with a construct encoding human FLAG-tagged IL12Rβ1; also called EL-4-human IL-12Rβ1 cells; human IL12Rβ1; not shown: FLAG tag
Excerpt: EL-4-human IL-12Rβ1 cell line: The EL-4 cell line was transduced with a construct encoding the human FLAG-tagged IL12Rβ1 Flow cytometry: EL-4-human IL-12Rβ1 cells were stained with supernatants from different hybridoma clones followed by anti-mouse IgG Pe. Staining was compared with that obtained with anti-FLAG Tag followed by anti-mouse IgG Pe. Hybridoma clones staining the same percentage of cells stained by anti-FLAG Tag were selected and further tested in primary cells (FIG. 2).

B1: 1G6 anti-IL12Rβ1 monoclonal antibody (antibody, V domains shown)
VH: RVQLQQSGAELAKPGASVRLSCMASGYTFTSYWMHWVKQRPGQGLEWIGYIDPNNGYTKYSQKFKDKATLTADKSSSTANMRLSSLTYEDSAVYYCVRGGEIYYFDYWGQGTTLTVSS
VL: DIQMTQSPSSLSASLGGKVTITCKASQDIYKYIAWYQHKPGKGPRLLIHYTSTLQPGIPSRFSGSGSGRDYSFSISDLEPEDIATYYCLQYDNILWTFGGGTKLEIKR
notes: Hybridoma monoclonal antibody, detected with anti-mouse IgG PE; Tested as hybridoma supernatant and also in biotinylated form; also called IG6; mab (1 G6)
- binding result [1]: binds
- binding result [2]: binds
